Source: PMC2172828 (The Journal of Cell Biology, 2003)

Molecular target: T1, GST–Cdc15p(1–405) (S. pombe, UniProt Q09822 1-405)
T1 sequence (looked up): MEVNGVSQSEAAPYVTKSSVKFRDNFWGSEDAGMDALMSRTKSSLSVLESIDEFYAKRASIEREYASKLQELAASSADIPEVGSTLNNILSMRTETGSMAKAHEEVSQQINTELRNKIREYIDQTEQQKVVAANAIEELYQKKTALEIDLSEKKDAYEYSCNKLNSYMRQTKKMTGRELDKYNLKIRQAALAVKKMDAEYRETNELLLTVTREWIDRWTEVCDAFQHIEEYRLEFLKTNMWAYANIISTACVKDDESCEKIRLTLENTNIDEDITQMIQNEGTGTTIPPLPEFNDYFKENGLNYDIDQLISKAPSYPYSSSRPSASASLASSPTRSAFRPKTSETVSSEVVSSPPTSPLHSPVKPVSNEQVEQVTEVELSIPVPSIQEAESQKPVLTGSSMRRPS
Test: pull-down

B1: MBP–Myo1p(727–1041) (domain or fragment, S. pombe, UniProt Q9Y7Z8 727-1041, looked up)
chain: ATRIQRAWRSYVRRRSEAAACIQKLWNRNKVNMELERVRNEGTKLLQGKKQRRRYSILGSRKFYGDYLSASKPNGTLWNTCGLSQNDHVIFSMRCEVLVHKLGRTSKPSPRQLVLTKKNLYLVITKIVDQKLTQQVEKKFAVSSIDSVGLTNLQDDWVAIRNKSSQNGDMFLRCFFKTEFITTLKRINRNIQVIVGPTIQYCRKPGKVQTVKTAKDETTKDYDYYKSGTIHVGTGLPPTSKSKPFPRLATGGSTAAARGPRPVVQNKPAATKPVSMPAAKSKPAPMANPVSTAQQTQNRPPAPAMQARPNTTQAA
binding result: binds
